doi:10.1101/2025.05.08.652968, “Molecular mechanism of exchange coupling in CLC chloride/proton antiporters” (bioRxiv, 2025)

Target: the molecule itself
Test: cryo-EM structure; CLC-ec1 in Salipro (Saposin-A, POPE/POPG) nanoparticles, 10 mM Hepes, 150 mM NaCl, pH 7.5; C2 symmetry imposed

B1: CLC-ec1 (wild type) (natural protein, E. coli)
chain: MKTDTPSLETPQAARLRRRQLIRQLLERDKTPLAILFMAAVVGTLVGLAAVAFDKGVAWLQNQRMGALVHTADNYPLLLTVAFLCSAVLAMFGYFLVRKYAPEAGGSGIPEIEGALEDQRPVRWWRVLPVKFFGGLGTLGGGMVLGREGPTVQIGGNIGRMVLDIFRLKGDEARHTLLATGAAAGLAAAFNAPLAGILFIIEEMRPQFRYTLISIKAVFIGVIMSTIMYRIFNHEVALIDVGKLSDAPLNTLWLYLILGIIFGIFGPIFNKWVLGMQDLLHRVHGGNITKWVLMGGAIGGLCGLLGFVAPATSGGGFNLIPIATAGNFSMGMLVFIFVARVITTLLCFSSGAPGGIFAPMLALGTVLGTAFGMVAVELFPQYHLEAGTFAIAGMGALLAASIRAPLTGIILVLEMTDNYQLILPMIITGLGATLLAQFTGGKPLYSAILARTLAKQEAEQLARSK
notes: CLC-ec1, the E. coli CLC Cl-/H+ exchange transporter homolog; The eluate of the cobalt column was incubated with Endoproteinase Lys-C; Homodimer in the cryo-EM maps (C2 symmetry imposed); also called WT CLC-ec1; WT
binding result: binds
